Consider 3 molecules from paper PMC12288907 (JCI Insight, 2025).

Experiment in all cases: ELISA
What all share (settings): both partners purified
Background: An ELISA detects its analyte on a solid surface through an enzyme-linked reagent.

Assay [1] has as its target recombinant soluble trimeric H7 HA of A/Netherlands/219/2003 H7N7 (NL03 H7) (Influenza A virus …, UniProt Q6VMK1, strain).
Assay [2] deals with recombinant soluble trimeric H15 HA of A/shearwater/Western Australia/2576/1979 H15N9 (wtWA79 H15) (Influenza A virus A/wedge-tailed …, UniProt Q20ND8, strain).
The target in assay [3] is recombinant soluble trimeric H15 HA of A/shearwater/Western Australia/2576/1979 H15N9 (Influenza A virus A/wedge-tailed …, UniProt Q20ND8, strain).
For assay [4], the target named is recombinant soluble trimeric H7 HA of A/Netherlands/219/2003 H7N7 (Influenza A virus …, UniProt Q6VMK1, strain).

B1: recombinant H7-235 IgG1 (rH7-235 IgG1) (antibody, V domains shown)
VH: QVQLVESGGGVVQPGESLRLSCAASGFAFRTYGMHWVRQAPGKGLEWVGVIWYDGSNKYYGDSVKGRFTISRDNSQNTLYLQMNSLRAEDTAVYYCARNGERWRVEDYYYGMDVWGQGTLVTVSS
VL: EIVMTQSPLSLPVTPGEPASISCRSSQSLLHSNAHNYLDWYLQKPGQSPQLLIYLGSNRASGVPDRFSGSGSGTDFTLKISRVEAEDVGIYYCMQALQTPITFGQGTRLEIK
notes: IgG1; also called rH7-235 mAb; mAb H7-235; copies: 2 + 2
Consider B1, for which the binding result in assay [1] is “binds”; in assay [2], “no binding”.

B2: rH7-235 IgG1 (recombinant human monoclonal antibody H7-235) (antibody, V domains shown)
VH: QVQLVESGGGVVQPGESLRLSCAASGFAFRTYGMHWVRQAPGKGLEWVGVIWYDGSNKYYGDSVKGRFTISRDNSQNTLYLQMNSLRAEDTAVYYCARNGERWRVEDYYYGMDVWGQGTLVTVSS
VL: EIVMTQSPLSLPVTPGEPASISCRSSQSLLHSNAHNYLDWYLQKPGQSPQLLIYLGSNRASGVPDRFSGSGSGTDFTLKISRVEAEDVGIYYCMQALQTPITFGQGTRLEIK
notes: also called mAb H7-235; source: Expi293F, transient transfection, purified (MabSelect Sure)
B2: the binding result in assay [3] is listed as “no binding (tested: >10,000 ng/mL)”.

B3: rH7-235rev IgG1 (germline revertant form of rH7-235 IgG) (antibody, V domains shown)
VH: QVQLVESGGGVVQPGRSLRLSCAASGFTFSSYGMHWVRQAPGKGLEWVAVIWYDGSNKYYADSVKGRFTISRDNSKNTLYLQMNSLRAEDTAVYYCARNGERWRVEDYYYGMDVWGQGTLVTVSS
VL: not shown
B3: the binding result in assay [3] and in assay [4] was “no binding (tested: >10,000 ng/mL)” in each case.
